For this test, the system named is soluble CD28-Fc. As to the kind of experiment: binding of soluble CD28-Fc by CD80 functionalized leucine zipper T cells. The settings on record: FIG. 21B. The source says: CD80 (B7-1) molecule functionalized to present blocked capture leucine zipper, permitting magnetic sorting with FLAG-RR12EE345L leucine zipper. T cells were transduced with vectors encoding (a) FLAG-RR12EE345L iCaspase9 CD19-myc-CAR and (b) RR12EE345L linker EE12RR345L CD80 CD20-streptag-CAR. Next, cells were magnetically sorted with anti-FLAG magnetic beads.

B1: RR12EE345L linker EE12RR345L CD80: CD80 (B7-1) functionalized to present blocked capture leucine zipper, SEQ ID NO: 142 (protein)
chain: METDTLLLWVLLLWVPGSTGLEIRAAFLRQRNTALRTEVAELEQEVQRLENEVSQYETRYGPLGGGKGGGGSGGGGSGGGGSGGGSLEIEAAFLERENTALETRVAELRQRVQRLRNRVSQYRTRYGPLGGGKEFTGSTSGSGKPGSGEGSTKGVDEQLSKSVKDKVLLPCRYNSPHEDESEDRIYWQKHDKVVLSVIAGKLKVWPEYKNRTLYDNTTYSLIILGLVLSDRGTYSCVVQKKERGTYEVKHLALVKLSIKADFSTPNITESGNPSADTKRITCFASGGFPKPRFSWLENGRELPGINTTISQDPESELYTISSQLDFNTTRNHTIKCLIKYGDAHVSEDFTWEKPPEDPPDSKNTLVLFGAGFGAVITVVVIVVIIKCFCKHRSCFRRNEASRETNNSLTFGPEEALAEQTVFL
Take B1: the “binding to soluble CD28-Fc” value is “bound to soluble CD28-Fc”.
